In publication PMC11251518, “A novel reporter for helicase activity in translation uncovers DDX3X interactions” (RNA, 2024):

Molecular target: T1, Saccharomyces cerevisiae eIF4E (S. cerevisiae, UniProt P07260 1-213, ^15N labeled)
T1 construct: eIF4E of Saccharomyces cerevisiae; source: E. coli BL21-star, purified (nickel resin, TEV cleavage, m^7G cap resin)
T1 sequence (looked up): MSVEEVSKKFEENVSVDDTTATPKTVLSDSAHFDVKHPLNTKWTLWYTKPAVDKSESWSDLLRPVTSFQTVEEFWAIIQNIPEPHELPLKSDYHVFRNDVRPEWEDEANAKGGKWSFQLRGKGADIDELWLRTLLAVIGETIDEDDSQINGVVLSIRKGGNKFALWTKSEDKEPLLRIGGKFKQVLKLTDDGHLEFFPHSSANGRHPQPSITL
Assay: NMR titration; ^15N HSQC of 200 μM ^15N S. cerevisiae eIF4E with 250 μM m^7GTP; peptide added to 1 mM; 50 mM phosphate pH 6.5, 50 mM KCl, 298 K, 900 MHz
Conditions: both partners purified

B1: 4E-BP1 peptide (amino acids 51–67) (peptide)
peptide: RIIYDRKFLMECRNSPV
notes: human 4E-BP1, amino acids 51–67; also called human 4E-BP1 amino acids 51–67; source: synthetic peptide (Elim Bio)
binding result: binds
